Laboratory results: patent publication US20060234941A1 (US Dept. of Health and Human Services, published 2006)

Legend:
[1] = molecular target: T1, HLA-A2 on the surface of T2 cells (human); test: T2 HLA-A2 stabilisation assay, flow cytometry with W6/32
T1 construct: Stabilised HLA-A2 detected with pan HLA class I monoclonal antibody W6/32; also called MHC molecules
Description: To test the binding affinity of the predicted human peptides for HLA-A2, three exemplary peptides, designated KDR505 (SEQ ID NO:6), KDR775 (SEQ ID NO:7) and KDR1093 (SEQ ID NO:5) were synthesized and evaluated in a T2 binding assay as described by Cerundolo et al., Nature 342:449-452, 1990. In brief, T2 cells were cultured in RPMI1640 with 10% FBS, and grown in 5% CO₂ at 37° C. Cells (1×10⁵) in a volume of 100 μl of RPMI 1640 (serum free) were aliquoted into 96-well, U-bottomed plates and incubated with peptide at a final concentration of 0.1-100 μM plus 5 nM β₂ microglobulin (Cymbus Biotechnology Ltd., Chandlers Ford, Hampshire, United Kingdom) for 18 h at 37° C. in 5% CO₂. The level of stabilized HLA-A2 on the surface of the T2 cells was detected using the pan HLA class I monoclonal antibody W6/32 (European Collection of Animal Cell Cultures (ECACC), Porton Down, Salisbury) that recognizes stabilized HLA-A2 complexes. Samples are fixed in 1% paraformaldehyde in PBS prior to analysis and analyzed on a Becton Dickinson FACSCAN®.

[2] = molecular target: T2, H-2Db MHC class I molecule on RMA-S cells (mouse, UniProt P01887 21-119; P01899 25-362); test: RMA-S MHC class I stabilisation assay, flow cytometry with anti-H-2Db antibody
T2 construct: MHC class I stabilised on RMA-S (H-2b) cells by added peptide; detected with anti-H-2Db monoclonal antibody clone 28-14-8; also called H-2Db molecules
T2 sequence (MHC heavy, looked up): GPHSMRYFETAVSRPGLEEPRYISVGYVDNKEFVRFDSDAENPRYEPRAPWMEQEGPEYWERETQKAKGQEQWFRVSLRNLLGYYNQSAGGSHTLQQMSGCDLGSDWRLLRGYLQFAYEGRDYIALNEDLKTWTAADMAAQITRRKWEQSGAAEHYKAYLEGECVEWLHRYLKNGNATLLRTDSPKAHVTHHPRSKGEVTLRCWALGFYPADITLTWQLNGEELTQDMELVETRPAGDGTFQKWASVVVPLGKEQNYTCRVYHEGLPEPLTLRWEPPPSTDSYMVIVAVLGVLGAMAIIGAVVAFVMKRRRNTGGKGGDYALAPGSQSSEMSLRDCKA
T2 sequence (b2m, looked up): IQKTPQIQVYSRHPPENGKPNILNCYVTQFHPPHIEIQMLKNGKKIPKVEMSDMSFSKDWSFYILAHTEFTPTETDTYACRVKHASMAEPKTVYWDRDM
Description: To test the binding affinity of these peptides to H-2Db, an RMA-S binding experiment was performed, and the FI value in the assay was measured. […] The RMA-Binding assays were performed as previously described (Lyman et al., J. Virol. 76:3125-3134, 2002). Briefly, synthetic peptides were dissolved in dimethyl sulfoxide before dilution. For MHC-binding assays, RMA-S cells were loaded with various peptides for 16 to 18 h at 37° C. Levels of surface class I molecules were assessed by flow cytometric analysis (FACScan; Becton Dickinson) using mouse monoclonal antibodies specific for H-2Db (Southern Biotech, clone No. 28-14-8). FI=Fluorescence after peptides stimulation/ Fluorescence without peptide-1.

B1: KDR505 (human VEGFR-2/KDR peptide ALIEGKNKT) (peptide)
peptide: ALIEGKNKT
binding result [1]: binds

B2: KDR775 (human VEGFR-2/KDR peptide AMFFWLLLV) (peptide)
peptide: AMFFWLLLV
binding result [1]: binds

B3: KDR1093 (human VEGFR-2/KDR peptide VLLWEIFSL) (peptide)
peptide: VLLWEIFSL
binding result [1]: binds

B4: Human Papilloma Virus (HPV)16E7 49-57 peptide (peptide, UniProt P03129 49-57, looked up)
peptide: RAHYNIVTF
notes: range 49-57; also called HPV E7 49-57
peptide concentration at FI=0.5 [2]: ~12.5 µM

B5: Human P53 264-272 peptide (peptide, UniProt P04637 264-272, looked up)
peptide: LLGRNSFEV
notes: range 264-272; also called wild type P53 264-272
binding result [2]: no binding (tested: 200 µM)
peptide concentration at FI=0.5 [2]: > 200 µM

B6: KDR3 (murine VEGFR-2/KDR peptide FSNSTNDILI) (peptide)
peptide: FSNSTNDILI
notes: Synthetic peptide (Sigma); also called VEGFR-2/KDR3
peptide concentration at FI=0.5 [2]: ~3 µM

B7: KDR2 (murine VEGFR-2/KDR peptide VILTNPISM) (peptide)
peptide: VILTNPISM
notes: Synthetic peptide (Sigma); also called VEGFR-2/KDR2
peptide concentration at FI=0.5 [2]: ~24 µM
